Data on five molecules can be found in patent publication US20210054097A1 (Novo Nordisk, published 2021).

For assay [1], the target named is T1, FX activation peptide 12-mer DPTENPFDLLDF (human).
T1 peptide: DPTENPFDLLDF-biotin
In words: peptide ELISA. In a few lines:
(§1)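 Nanobodies (FLAG-tagged) or IgG antibodies, 2 μg/mL, incubated 1 h on C-terminally biotinylated peptide captured via streptavidin, washing buffer pH 8.60 containing CaCl₂ and Tween 20. Read-out: HRP-conjugated secondary antibody with TMB colour development.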
(An ELISA detects its analyte on a solid surface through an enzyme-linked reagent.)

The target of assay [2] is T2, FX activation peptide 12-mer PTENPFDLLDFN (human).
T2 peptide: PTENPFDLLDFN-biotin
The experiment in a line: peptide ELISA. The gist of the method:
as §1

Ends that are not written are not given here.

B1: Nb 729A04 (VHH)
VHH: EVQLVESGGGVVQPGGSLRLSCAASGFTFSDYAMSWVRQAPGKGLEWVSGITSGGGRTYYADSVKGRFTISRDNSKNTLYLQMNSLRPEDTALYYCAAVRTLGLRGSYDYWGQGTLVTVSS
notes: monovalent Nanobody; not shown: C-terminal FLAG3 and HIS6 tag
In the case of B1, the “ELISA signal relative to background” value in assay [1] was 4.03; in assay [2], 5.18.

B2: Nb 701B09 (VHH)
VHH: EVQLVESGGGVVQPGGSLRLSCAASGRTFSTYAMGWFRQAPGKEREFVAAISWSGSRTYYADSVKGRFTISRDNSKNTVYLQMNSLRPEDTALYYCAADATPANGELDYWGQGTLVTVSS
notes: monovalent Nanobody; also called Nb 701609; not shown: C-terminal FLAG3 and HIS6 tag
For B2, the “ELISA signal relative to background” value came out at 2.87 in assay [1] and 3.91 in assay [2].

B3: Nb 702C12 (VHH)
VHH: EVQLVESGGGVVQPGGSLRLSCVASGRTFSRYAMGWFRQAPGKEREFVAAISRRGGSTNYADSVKGRFTISRDNSKNTVYLQMNSLRPEDTALYYCAADYSSGDGYLDYWGQGTLVTVSS
notes: as for B1
As to B3, the “ELISA signal relative to background” value in assay [1] is 4.16; in assay [2], 4.58.

B4: Nb 729C08 (VHH)
VHH: EVQLVESGGGVVQPGGSLRLSCAASGFTFSDYAMSWVRQAPGKGLEWVSGITGGGRTYYADSVKGRFTISRDNSKNTLYLQMNSLRPEDTALYYCAAAILTRTRRTYDYWGQGTLVTVSS
notes: monovalent Nanobody; also called Nb 729008; not shown: C-terminal FLAG3 and HIS6 tag
B4: the “ELISA signal relative to background” value in assay [2] was determined as 2.06.

B5: Nb 501A02 (VHH)
VHH: EVQLVESGGGLVQPGGSLRLSCAASGFTFSNYEMSWVRQAPGKGLEWVSDIGSGGGVSTYYADSVKGRFTISRDNAKNTLYLQMNSLKPEDTAMYYCARGWTYGSDGMDYWGKGTLVTVSS
notes: monovalent control Nanobody; also called control Nanobody; not shown: C-terminal FLAG3 and HIS6 tag
Turning to B5, in assay [1], the “ELISA signal relative to background” value is 0.88 and the binding result is on record as “no binding (tested: 2 µg/mL)”. In addition, in assay [2], the “ELISA signal relative to background” value was 0.88 and the binding result was “no binding (tested: 2 µg/mL)”.
